According to doi:10.1101/2020.09.29.319483:
pKi: −log10 of the molar value.

Legend:
[1] = target: human glucagon-like peptide-1 receptor (human) (UniProt P43220)
[2] = target: human glucagon-like peptide-1 receptor (human) (UniProt P43220); assay: radioligand binding

Chain of UniProt P43220 (P43220 24-463): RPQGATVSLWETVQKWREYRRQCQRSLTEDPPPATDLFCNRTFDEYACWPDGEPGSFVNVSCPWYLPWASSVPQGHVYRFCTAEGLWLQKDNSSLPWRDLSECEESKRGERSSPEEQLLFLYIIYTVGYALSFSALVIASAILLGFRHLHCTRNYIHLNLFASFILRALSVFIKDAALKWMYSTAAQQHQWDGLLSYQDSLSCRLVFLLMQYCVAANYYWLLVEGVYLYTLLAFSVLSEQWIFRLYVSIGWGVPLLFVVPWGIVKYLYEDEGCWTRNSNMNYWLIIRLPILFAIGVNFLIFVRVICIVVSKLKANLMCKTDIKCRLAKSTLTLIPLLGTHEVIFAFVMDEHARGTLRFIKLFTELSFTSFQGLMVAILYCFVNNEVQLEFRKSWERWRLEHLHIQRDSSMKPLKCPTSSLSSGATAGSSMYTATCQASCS

With “exenatide (from UniProt P26349 48-87) (peptide)” the cAMP production, candidate selection (CS) CHO-GLP-1R cell line [1] was 0.11 nM and the pKi [2] was 10.04.

Work on liraglutide (peptide) yielded a pKi [2] of 8.36.
